Test results: PMC4810252

B1: BST-2/tetherin: N65/92A (protein)
parent chain: MASTSYDYCRVPMEDGDKRCKLLLGIGILVLLIIVILGVPLIIFTIKANSEACRDGLRAVMECRNVTHLLQQELTEAQKGFQDVEAQAATCNHTVMALMASLDAEKAQGQKKVEELEGEITTLNHKLQDASAEVERLRRENQVLSVRIADKKYYPSSQDSSSAAAPQLLIVLLGLSALLQ
B2: BST-2/tetherin: N65A (protein)
parent chain: MASTSYDYCRVPMEDGDKRCKLLLGIGILVLLIIVILGVPLIIFTIKANSEACRDGLRAVMECRNVTHLLQQELTEAQKGFQDVEAQAATCNHTVMALMASLDAEKAQGQKKVEELEGEITTLNHKLQDASAEVERLRRENQVLSVRIADKKYYPSSQDSSSAAAPQLLIVLLGLSALLQ
B3: BST-2/tetherin: N92A (protein)
parent chain: MASTSYDYCRVPMEDGDKRCKLLLGIGILVLLIIVILGVPLIIFTIKANSEACRDGLRAVMECRNVTHLLQQELTEAQKGFQDVEAQAATCNHTVMALMASLDAEKAQGQKKVEELEGEITTLNHKLQDASAEVERLRRENQVLSVRIADKKYYPSSQDSSSAAAPQLLIVLLGLSALLQ

How the values were obtained:
Details in all cases: glycan lost; control: wild type
[1] = HBsAg ELISA of supernatant; 293T and Huh7
[2] = sucrose gradient fractionation, stable 293T, Western blot
[3] = confocal co-localisation, transient and stable 293T
[4] = confocal co-localisation, transfected 293T
[5] = confocal co-localisation, stable 293T

Protein | other: restriction of virus release [1] | localisation_or_trafficking [2] | localisation_or_trafficking [3] | localisation_or_trafficking [4] | localisation_or_trafficking [5]
B1 | no change | changes | increases | – | –
B2 | – | changes | – | no change | no change
B3 | – | changes | – | no change | –
